According to the supplement of paper PMC9233669:
Fewer inactive variants are shown than the library holds.

Tests used:
biotinyl-Met-oxazolone = test: self-aminoacylation, catalytic enhancement (BMO) (fold over background); higher = more active; k-Seq, kA / k0A0; sequences stand for … in GGGAAUGGAUCCACAUCUACGAAUUC…UUCACUGCAGACUUGACGAAGCUG
Procedure, shortened: (§1)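 Working in 50 μL HEPES/NaCl/KCl/MgCl2/CaCl2 buffer with 5% acetonitrile at pH 6.9–7.0, mutagenized RNA pools (0.43 μM; 21-nt variable region) were reacted with 2–1250 μM of each biotinyl-aminoacyl-oxazolone for 90 minutes at room temperature. Streptavidin capture followed, with quantification by triplicate qPCR and Illumina sequencing. Catalytic enhancement is reported as median kA over the uncatalyzed rate, the low-activity peak of a bimodal Gaussian fit to the data.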

biotinyl-Val-oxazolone = test: self-aminoacylation, catalytic enhancement (BVO) (fold over background); higher = more active; k-Seq, kA / k0A0; sequences stand for … in GGGAAUGGAUCCACAUCUACGAAUUC…UUCACUGCAGACUUGACGAAGCUG
Procedure, shortened: as §1

biotinyl-Phe-oxazolone = test: self-aminoacylation, catalytic enhancement (BFO) (fold over background); higher = more active; k-Seq, kA / k0A0; sequences stand for … in GGGAAUGGAUCCACAUCUACGAAUUC…UUCACUGCAGACUUGACGAAGCUG
Procedure, shortened: as §1

biotinyl-Leu-oxazolone = test: self-aminoacylation, catalytic enhancement (BLO) (fold over background); higher = more active; k-Seq, kA / k0A0; sequences stand for … in GGGAAUGGAUCCACAUCUACGAAUUC…UUCACUGCAGACUUGACGAAGCUG
Procedure, shortened: as §1

biotinyl-Trp-oxazolone = test: self-aminoacylation, catalytic enhancement (BWO) (fold over background); higher = more active; k-Seq, kA / k0A0; sequences stand for … in GGGAAUGGAUCCACAUCUACGAAUUC…UUCACUGCAGACUUGACGAAGCUG
Procedure, shortened: as §1

biotinyl-Ile-oxazolone = test: self-aminoacylation, catalytic enhancement (BIO) (fold over background); higher = more active; k-Seq, kA / k0A0; sequences stand for … in GGGAAUGGAUCCACAUCUACGAAUUC…UUCACUGCAGACUUGACGAAGCUG
Procedure, shortened: as §1

Sequence | self-aminoacylation (biotinyl-Met-oxazolone) | self-aminoacylation (biotinyl-Val-oxazolone) | self-aminoacylation (biotinyl-Phe-oxazolone) | self-aminoacylation (biotinyl-Leu-oxazolone) | self-aminoacylation (biotinyl-Trp-oxazolone) | self-aminoacylation (biotinyl-Ile-oxazolone)
AUUCACCUAGGUCACUGGGUG [Fam2.2 aminoacylation ribozyme variant] | 2.82 | 1.72 | 19.7 | 3.93 | 2.52 | 1.8
AUUCACCUAGGUCAGCGGGUU [Fam2.2 aminoacylation ribozyme variant] | 1.65 | 2.15 | 4.6 | 2.42 | 1.94 | 2.56
AUUCACCUAGGUCAGCUGGUG [Fam2.2 aminoacylation ribozyme variant] | 2.56 | 1.64 | 15.1 | 2.7 | 1.7 | 1.92
AUUCACCUAGGUCAGUGGGUG [Fam2.2 aminoacylation ribozyme variant] | 1 | 0.999 | 1.08 | 1.26 | 0.885 | 0.904
AUUCACCUAGGUCAUAGGGUU [Fam2.2 aminoacylation ribozyme variant] | 0.827 | 0.804 | 0.392 | 0.676 | 0.959 | 0.918
AUUCACCUAGGUCAUAUGGUG [Fam2.2 aminoacylation ribozyme variant] | 3.44 | 2.25 | 20.3 | 4.8 | 3.68 | 2.25
AUUCACCUAGGUCAUCACGUG [Fam2.2 aminoacylation ribozyme variant] | 3.99 | 2.62 | 23.1 | 4.54 | 3.56 | 2.03
AUUCACCUAGGUCAUCCGGGG [Fam2.2 aminoacylation ribozyme variant] | 3.21 | 2.84 | 7.28 | 4.27 | 3.23 | 3.2
AUUCACCUAGGUCAUCCGUUG [Fam2.2 aminoacylation ribozyme variant] | 0.997 | 1.19 | 4.37 | 1.16 | 0.699 | 1.31
AUUCACCUAGGUCAUCCUGUG [Fam2.2 aminoacylation ribozyme variant] | 0.923 | 0.885 | 1.42 | 1.04 | 0.316 | 1.13
AUUCACCUAGGUCAUCGACUG [Fam2.2 aminoacylation ribozyme variant] | 0.561 | 0.6 | 0.459 | 0.553 | 0.318 | 0.564
AUUCACCUAGGUCAUCGAGAG [Fam2.2 aminoacylation ribozyme variant] | 1.07 | 0.848 | 1.13 | 1.47 | 0.394 | 0.915
AUUCACCUAGGUCAUCGAGUA [Fam2.2 aminoacylation ribozyme variant] | 9.81 | 5.92 | 31.7 | 13.1 | 3.9 | 7.22
AUUCACCUAGGUCAUCGCAUG [Fam2.2 aminoacylation ribozyme variant] | 1.04 | 1.28 | 0.374 | 1.22 | 1.06 | 1.05
AUUCACCUAGGUCAUCGGAUU [Fam2.2 aminoacylation ribozyme variant] | 0.853 | 0.864 | 0.438 | 0.837 | 1.19 | 0.872
AUUCACCUAGGUCAUCGGGGU [Fam2.2 aminoacylation ribozyme variant] | 7.67 | 5.09 | 40.5 | 12.2 | 7.01 | 5.09
AUUCACCUAGGUCAUCGGUUU [Fam2.2 aminoacylation ribozyme variant] | 1.19 | 1.41 | 1.09 | 1.28 | 0.984 | 1.19
AUUCACCUAGGUCAUCGUCUG [Fam2.2 aminoacylation ribozyme variant] | 0.67 | 0.718 | 0.312 | 0.717 | 0.376 | 0.663
AUUCACCUAGGUCAUCGUGUC [Fam2.2 aminoacylation ribozyme variant] | 0.403 | 0.474 | 0.307 | 0.498 | 0.514 | 0.461
AUUCACCUAGGUCAUCGUUUG [Fam2.2 aminoacylation ribozyme variant] | 0.542 | 0.771 | 0.512 | 0.556 | 0.31 | 0.592
AUUCACCUAGGUCAUCUGGGG [Fam2.2 aminoacylation ribozyme variant] | 1.83 | 1.5 | 2.49 | 1.9 | 1.54 | 1.63
AUUCACCUAGGUCAUCUGGUG [Fam2.2 aminoacylation ribozyme variant] | 2.71 | 1.9 | 16.5 | 3.41 | 2.62 | 1.93
AUUCACCUAGGUCAUGGGCUG [Fam2.2 aminoacylation ribozyme variant] | 1.54 | 1.33 | 0.402 | 1.66 | 1.17 | 1.63
AUUCACCUAGGUCAUGGGGAG [Fam2.2 aminoacylation ribozyme variant] | 0.889 | 0.979 | 0.544 | 0.853 | 1.56 | 1.03
AUUCACCUAGGUCAUUGCGUG [Fam2.2 aminoacylation ribozyme variant] | 15.7 | 7.69 | 123 | 21.7 | 15.8 | 8.82
AUUCACCUAGGUCAUUGGCUG [Fam2.2 aminoacylation ribozyme variant] | 1.32 | 1.4 | 3.54 | 1.33 | 0.756 | 1.21

Sequence | self-aminoacylation (biotinyl-Met-oxazolone) | self-aminoacylation (biotinyl-Val-oxazolone) | self-aminoacylation (biotinyl-Phe-oxazolone) | self-aminoacylation (biotinyl-Leu-oxazolone) | self-aminoacylation (biotinyl-Trp-oxazolone) | self-aminoacylation (biotinyl-Ile-oxazolone)
AUUCACCUAGGUCAUUGGGUG [Fam2.2 aminoacylation ribozyme variant] | 3.26 | 2.29 | 20.1 | 4.03 | 3.18 | 2.31
AUUCACCUAGGUCAUUUGGUG [Fam2.2 aminoacylation ribozyme variant] | 3.31 | 2.03 | 21.2 | 4.82 | 3.43 | 2.13
AUUCACCUAGGUCCCCGGGUG [Fam2.2 aminoacylation ribozyme variant] | 8.22 | 4.54 | 58.4 | 9.96 | 7.84 | 5.12
AUUCACCUAGGUCCUCCGGUG [Fam2.2 aminoacylation ribozyme variant] | 10.3 | 5.33 | 63.3 | 11.5 | 9.26 | 6.38
AUUCACCUAGGUCCUCGGGUA [Fam2.2 aminoacylation ribozyme variant] | 2.26 | 2.39 | 1.16 | 1.71 | 3 | 2.44
AUUCACCUAGGUCCUCGGUUG [Fam2.2 aminoacylation ribozyme variant] | 1.39 | 1.31 | 4.8 | 1.51 | 0.815 | 1.13
AUUCACCUAGGUCGCCGGGUG [Fam2.2 aminoacylation ribozyme variant] | 3.99 | 3.25 | 18.5 | 3.8 | 3.38 | 3.4
AUUCACCUAGGUCGUCGGGAG [Fam2.2 aminoacylation ribozyme variant] | 0.924 | 1.36 | 0.385 | 1.27 | 0.943 | 0.982
AUUCACCUAGGUCGUCGGGCG [Fam2.2 aminoacylation ribozyme variant] | 2.56 | 3.2 | 15.2 | 4.5 | 2.76 | 3.39
AUUCACCUAGGUCGUCGGGGG [Fam2.2 aminoacylation ribozyme variant] | 3.07 | 2.9 | 8.18 | 3.38 | 3.53 | 3.11
AUUCACCUAGGUCGUCGGGUA [Fam2.2 aminoacylation ribozyme variant] | 2.24 | 1.95 | 6.61 | 2.71 | 1.95 | 1.85
AUUCACCUAGGUCGUGGGGUG [Fam2.2 aminoacylation ribozyme variant] | 1.5 | 1.61 | 5.74 | 1.97 | 1.66 | 1.54
AUUCACCUAGGUCGUUGGGUG [Fam2.2 aminoacylation ribozyme variant] | 1.42 | 1.2 | 3.95 | 1.52 | 1.23 | 1.35
AUUCACCUAGGUCUUCCGGUG [Fam2.2 aminoacylation ribozyme variant] | 11.2 | 7 | 99.3 | 17.2 | 12.2 | 7.6
AUUCACCUAGGUCUUCGAGUG [Fam2.2 aminoacylation ribozyme variant] | 2.99 | 2.13 | 9.5 | 3.65 | 3.26 | 2.03
AUUCACCUAGGUCUUCGGGCG [Fam2.2 aminoacylation ribozyme variant] | 3.94 | 2.83 | 13.6 | 5.23 | 2.99 | 2.8
AUUCACCUAGGUCUUGGGGUG [Fam2.2 aminoacylation ribozyme variant] | 11.2 | 6.44 | 77.3 | 13.8 | 9.73 | 5.73
AUUCACCUAGGUGAUCGCGUG [Fam2.2 aminoacylation ribozyme variant] | 2.86 | 2.31 | 14.6 | 4.17 | 2.83 | 2.69
AUUCACCUAGGUGAUCGGGCG [Fam2.2 aminoacylation ribozyme variant] | 3.9 | 3.62 | 12.5 | 4.11 | 3.84 | 3.28
AUUCACCUAGGUGAUGGGGUG [Fam2.2 aminoacylation ribozyme variant] | 2.65 | 2.21 | 14.4 | 2.81 | 2.65 | 2.02
AUUCACCUAGGUGCUCGGGUG [Fam2.2 aminoacylation ribozyme variant] | 3.67 | 3.1 | 31.1 | 4.46 | 3.64 | 3.07
AUUCACCUAGGUGUUCGGGUG [Fam2.2 aminoacylation ribozyme variant] | 3.31 | 2.93 | 21.7 | 4.31 | 3.74 | 2.79
AUUCACCUAGGUUACCGGGUG [Fam2.2 aminoacylation ribozyme variant] | 3.68 | 2.63 | 18.5 | 3.98 | 3.78 | 2.49
AUUCACCUAGGUUAUCGGGAG [Fam2.2 aminoacylation ribozyme variant] | 1.17 | 1.55 | 0.308 | 1.17 | 0.528 | 1.21
AUUCACCUAGGUUAUCGGGUC [Fam2.2 aminoacylation ribozyme variant] | 1.13 | 1.08 | 1.59 | 1.11 | 0.944 | 1.2
